Molecular target: ndufs4^-/- complex I (N-module plus QP subcomplex) (mouse (endogenous in heart and kidney)) (UniProt Q91YT0)
Test: cryo-EM structure

Chain of assembly factor NDUFAF2 (natural protein) (Q59J78 whole entry): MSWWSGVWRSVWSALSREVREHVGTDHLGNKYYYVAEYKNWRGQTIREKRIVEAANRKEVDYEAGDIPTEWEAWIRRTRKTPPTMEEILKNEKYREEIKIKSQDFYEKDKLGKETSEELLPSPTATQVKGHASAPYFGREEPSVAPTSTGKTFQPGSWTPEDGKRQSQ

assembly factor NDUFAF2 (natural protein)
percent of particles that contain NDUFAF2: 14%
